Experimental data published in the supplement of paper PMC11316812.
± gives the standard deviation of the averaged measurements.

What was measured:
hTERT-HMEC = experiment: percentage of EdU-negative (G0-arrested) nuclei per well, 72 h; higher = more G0 arrest; details: reference: sequence is the full UniProt precursor, the tested protein was the secreted form or ectodomain
MCF7 = experiment: as above; details: reference: sequence is the full UniProt precursor, the tested protein was the secreted form or ectodomain
[1] = protein concentration 0.0175 µM
[2] = protein concentration 0.03125 µM
[3] = protein concentration 0.3125 µM
[4] = protein concentration 0.0225 µM
[5] = protein concentration 0.02175 µM
[6] = protein concentration 0.2175 µM
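Note: secreted proteins added to cultured cells, EdU pulse at the end, nuclei found by Hoechst imaging, EdU status from nuclear versus surrounding ring intensity ratio, PBS as neutral control.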

## MSAFRLWPGLLIMLGSLCHRGSPCGLSTHVEIGHRALEFLQLHNGRVNYRELLLEHQDAYQAGIVFPDCFYPSICKGGKFHDVSESTHWTPFLNASVHYIRENYPLPWEKDTEKLVAFLFGITSHMAADVSWHSLGLEQGFLRTMGAIDFHGSYSEAHSAGDFGGDVLSQFEFNFNYLARRWYVPVKDLLGIYEKLYGRKVITENVIVDCSHIQFLEMYGEMLAVSKLYPTYSTKSPFLVEQFQEYFLGGLDDMAFWSTNIYHLTSFMLENGTSDCNLPENPLFIACGGQQNHTQGSKMQKNDFHRNLTTSLTESVDRNINYTERGVFFSVNSWTPDSMSFIYKALERNIRTMFIGGSQLSQKHVSSPLASYFLSFPYARLGWAMTSADLNQDGHGDLVVGAPGYSRPGHIHIGRVYLIYGNDLGLPPVDLDLDKEAHRILEGFQPSGRFGSALAVLDFNVDGVPDLAVGAPSVGSEQLTYKGAVYVYFGSKQGGMSSSPNITISCQDIYCNLGWTLLAADVNGDSEPDLVIGSPFAPGGGKQKGIVAAFYSGPSLSDKEKLNVEAANWTVRGEEDFSWFGYSLHGVTVDNRTLLLVGSPTWKNASRLGHLLHIRDEKKSLGRVYGYFPPNGQSWFTISGDKAMGKLGTSLSSGHVLMNGTLKQVLLVGAPTYDDVSKVAFLTVTLHQGGATRMYALTSDAQPLLLSTFSGDRRFSRFGGVLHLSDLDDDGLDEIIMAAPLRIADVTSGLIGGEDGRVYVYNGKETTLGDMTGKCKSWITPCPEEKAQYVLISPEASSRFGSSLITVRSKAKNQVVIAAGRSSLGARLSGALHVYSLGSD
hTERT-HMEC; [1]
  percentage of EdU-negative: 4.66 ± 0.8%
hTERT-HMEC; protein concentration 0.175 µM
  percentage of EdU-negative: 7.38 ± 0.61%
MCF7; [1]
  percentage of EdU-negative: 25.88 ± 0.089%
MCF7; protein concentration 0.175 µM
  percentage of EdU-negative: 31.8 ± 1.3%

## MSALGAVIALLLWGQLFAVDSGNDVTDIADDGCPKPPEIAHGYVEHSVRYQCKNYYKLRTEGDGVYTLNDKKQWINKAVGDKLPECEADDGCPKPPEIAHGYVEHSVRYQCKNYYKLRTEGDGVYTLNNEKQWINKAVGDKLPECEAVCGKPKNPANPVQRILGGHLDAKGSFPWQAKMVSHHNLTTGATLINEQWLLTTAKNLFLNHSENATAKDIAPTLTLYVGKKQLVEIEKVVLHPNYSQVDIGLIKLKQKVSVNERVMPICLPSKDYAEVGRVGYVSGWGRNANFKFTDHLKYVMLPVADQDQCIRHYEGSTVPEKKTPKSPVGVQPILNEHTFCAGMSKYQEDTCYGDAGSAFAVHDLEEDTWYATGILSFDKSCAVAEYGVYVKVTSIQDWVQKTIAEN
hTERT-HMEC; [2]
  percentage of EdU-negative: 4.46 ± 0.32%
hTERT-HMEC; [3]
  percentage of EdU-negative: 5.96 ± 1.1%
MCF7; [2]
  percentage of EdU-negative: 23.8 ± 3%
MCF7; [3]
  percentage of EdU-negative: 23.1 ± 0.73%

## MSALWLLLGLLALMDLSESSNWGCYGNIQSLDTPGASCGIGRRHGLNYCGVRASERLAEIDMPYLLKYQPMMQTIGQKYCMDPAVIAGVLSRKSPGDKILVNMGDRTSMVQDPGSQAPTSWISESQVSQTTEVLTTRIKEIQRRFPTWTPDQYLRGGLCAYSGGAGYVRSSQDLSCDFCNDVLARAKYLKRHGF [Q8N1E2]
hTERT-HMEC; [4]
  percentage of EdU-negative: 4.76 ± 1.4%
hTERT-HMEC; protein concentration 0.225 µM
  percentage of EdU-negative: 6.97 ± 0.29%
MCF7; [4]
  percentage of EdU-negative: 25.6 ± 2%
MCF7; protein concentration 0.225 µM
  percentage of EdU-negative: 25.2 ± 0.58%

## MSAVLLLALLGFILPLPGVQALLCQFGTVQHVWKVSDLPRQWTPKNTSCDSGLGCQDTLMLIESGPQVSLVLSKGCTEAKDQEPRVTEHRMGPGLSLISYTFVCRQEDFCNNLVNSLPLWAPQPPADPGSLRCPVCLSMEGCLEGTTEEICPKGTTHCYDGLLRLRGGGIFSNLRVQGCMPQPGCNLLNGTQEIGPVGMTENCNRKDFLTCHRGTTIMTHGNLAQEPTDWTTSNTEMCEVGQVCQETLLLLDVGLTSTLVGTKGCSTVGAQNSQKTTIHSAPPGVLVASYTHFCSSDLCNSASSSSVLLNSLPPQAAPVPGDRQCPTCVQPLGTCSSGSPRMTCPRGATHCYDGYIHLSGGGLSTKMSIQGCVAQPSSFLLNHTRQIGIFSAREKRDVQPPASQHEGGGAEGLESLTWGVGLALAPALWWGVVCPSC [Q8N6Q3]
hTERT-HMEC; [5]
  percentage of EdU-negative: 4.87 ± 0.96%
hTERT-HMEC; [6]
  percentage of EdU-negative: 6.31 ± 0.15%
MCF7; [5]
  percentage of EdU-negative: 26.1 ± 2.3%
MCF7; [6]
  percentage of EdU-negative: 26.7 ± 1%

## MSCPVPACCALLLVLGLCRARPRNALLLLADDGGFESGAYNNSAIATPHLDALARRSLLFRNAFTSVSSCSPSRASLLTGLPQHQNGMYGLHQDVHHFNSFDKVRSLPLLLSQAGVRTGIIGKKHVGPETVYPFDFAYTEENGSVLQVGRNITRIKLLVRKFLQTQDDRPFFLYVAFHDPHRCGHSQPQYGTFCEKFGNGESGMGRIPDWTPQAYDPLDVLVPYFVPNTPAARADLAAQYTTVGRMDQGVGLVLQELRDAGVLNDTLVIFTSDNGIPFPSGRTNLYWPGTAEPLLVSSPEHPKRWGQVSEAYVSLLDLTPTILDWFSIPYPSYAIFGSKTIHLTGRSLLPALEAEPLWATVFGSQSHHEVTMSYPMRSVQHRHFRLVHNLNFKMPFPIDQDFYVSPTFQDLLNRTTAGQPTGWYKDLRHYYYRARWELYDRSRDPHETQNLATDPRFAQLLEMLRDQLAKWQWETHDPWVCAPDGVLEEKLSPQCQPLHNEL
hTERT-HMEC; [4]
  percentage of EdU-negative: 5.35 ± 1.4%
hTERT-HMEC; protein concentration 0.225 µM
  percentage of EdU-negative: 7.84 ± 0.29%
MCF7; [4]
  percentage of EdU-negative: 28.4 ± 3.8%
MCF7; protein concentration 0.225 µM
  percentage of EdU-negative: 26.4 ± 0.34%

## MSDLGAVISLLLWGRQLFALYSGNDVTDISDDRFPKPPEIANGYVEHLFRYQCKNYYRLRTEGDGVYTLNDKKQWINKAVGDKLPECEAVCGKPKNPANPVQRILGGHLDAKGSFPWQAKMVSHHNLTTGATLINEQWLLTTAKNLFLNHSENATAKDIAPTLTLYVGKKQLVEIEKVVLHPNYHQVDIGLIKLKQKVLVNERVMPICLPSKNYAEVGRVGYVSGWGQSDNFKLTDHLKYVMLPVADQYDCITHYEGSTCPKWKAPKSPVGVQPILNEHTFCVGMSKYQEDTCYGDAGSAFAVHDLEEDTWYAAGILSFDKSCAVAEYGVYVKVTSIQHWVQKTIAEN
hTERT-HMEC; protein concentration 0.029 µM
  percentage of EdU-negative: 4.84 ± 0.049%
hTERT-HMEC; protein concentration 0.29 µM
  percentage of EdU-negative: 4.84 ± 0.17%
MCF7; protein concentration 0.029 µM
  percentage of EdU-negative: 26.82 ± 0.23%
MCF7; protein concentration 0.29 µM
  percentage of EdU-negative: 26.1 ± 1.1%
